Target: T1, keratin 1 (K1) (UniProt P04104 1-637)
T1 sequence (looked up): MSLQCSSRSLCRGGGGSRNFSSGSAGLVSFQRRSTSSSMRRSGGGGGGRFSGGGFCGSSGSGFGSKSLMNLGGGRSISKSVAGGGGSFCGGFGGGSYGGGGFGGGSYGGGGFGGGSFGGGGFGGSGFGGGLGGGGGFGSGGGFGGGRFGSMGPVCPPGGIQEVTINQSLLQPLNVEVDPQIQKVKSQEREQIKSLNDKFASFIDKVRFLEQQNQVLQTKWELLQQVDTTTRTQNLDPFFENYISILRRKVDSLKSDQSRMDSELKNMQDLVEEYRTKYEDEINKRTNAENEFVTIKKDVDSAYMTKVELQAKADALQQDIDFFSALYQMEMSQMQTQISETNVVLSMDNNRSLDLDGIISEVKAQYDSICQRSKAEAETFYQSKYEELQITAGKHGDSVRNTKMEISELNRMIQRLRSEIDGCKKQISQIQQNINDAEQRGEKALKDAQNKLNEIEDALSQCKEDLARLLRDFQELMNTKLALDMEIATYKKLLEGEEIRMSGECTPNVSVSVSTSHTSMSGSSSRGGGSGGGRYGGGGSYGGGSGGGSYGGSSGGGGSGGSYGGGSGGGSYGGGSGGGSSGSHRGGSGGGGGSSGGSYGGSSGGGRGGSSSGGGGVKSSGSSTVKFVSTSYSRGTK
Assay: co-sedimentation

B1: keratin 10 (K10), full length (natural protein, UniProt P02535-2 1-561, looked up)
chain: MSVLYSSSSKQFSSSRSGGGGGGGSVRVSSTRGSLGGGYSSGGFSGGSFSRGSSGGGCFGGSSGGYGGFGGGGSFGGGYGGSSFGGGYGGSSFGGGSFGGGGSFGGGSFGGGSYGGGFGGGGFGGDGGSLLSGNEKVTMQNLNDRLASYMDKVRALEESNYELEGKIKEWYEKHGNSSQREPRDYSKYYKTIEDLKGQILTLTTDNANVLLQIDNARLAADDFRLKYENEVTLRQSVEADINGLRRVLDELTLSKSDLEMQIESLNEELAYLKKNHEEEMRDLQNVSTGDVNVEMNAAPGVDLTQLLNNMRNQYEQLAEKNRKDAEEWFNQKSKELTTEIDSNIEQMSSHKSEITELRRTVQGLEIELQSQLALKQSLEASLAETEGRYCVQLSQIQSQISALEEQLQQIRAETECQNAEYQQLLDIKTRLENEIQTYRSLLEGEGSSSGGGGGRRGGSGGGSYGGSSGGGSYGGSSGGGGSYGGSSGGGGSYGGGSSGGGSHGGSSGGGYGGGSSSGGAGGHGGSSGGGYGGGSSSGGQGGSGGFKSSGGGDQSSKGPRY
binding result: binds

Source: doi:10.1101/2020.04.30.070086 (bioRxiv, 2020)
